Test results reported in US20240218055A1 (US Dept. of Health and Human Services, published 2024).
Where two headings read alike, the source gives them in different places.

T1: LASV GP1 subunit protein (Lassa virus, UniProt P08669 59-259)
T1 sequence: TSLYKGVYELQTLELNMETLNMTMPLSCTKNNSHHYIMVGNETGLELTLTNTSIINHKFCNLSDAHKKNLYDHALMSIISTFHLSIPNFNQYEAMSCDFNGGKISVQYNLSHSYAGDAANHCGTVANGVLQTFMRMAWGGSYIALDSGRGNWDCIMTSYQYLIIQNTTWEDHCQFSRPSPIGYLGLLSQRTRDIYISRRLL

T2: LASV Josiah GPC on pseudotyped rVSV (Lassa virus (Josiah strain), UniProt P08669 1-491)
T2 sequence: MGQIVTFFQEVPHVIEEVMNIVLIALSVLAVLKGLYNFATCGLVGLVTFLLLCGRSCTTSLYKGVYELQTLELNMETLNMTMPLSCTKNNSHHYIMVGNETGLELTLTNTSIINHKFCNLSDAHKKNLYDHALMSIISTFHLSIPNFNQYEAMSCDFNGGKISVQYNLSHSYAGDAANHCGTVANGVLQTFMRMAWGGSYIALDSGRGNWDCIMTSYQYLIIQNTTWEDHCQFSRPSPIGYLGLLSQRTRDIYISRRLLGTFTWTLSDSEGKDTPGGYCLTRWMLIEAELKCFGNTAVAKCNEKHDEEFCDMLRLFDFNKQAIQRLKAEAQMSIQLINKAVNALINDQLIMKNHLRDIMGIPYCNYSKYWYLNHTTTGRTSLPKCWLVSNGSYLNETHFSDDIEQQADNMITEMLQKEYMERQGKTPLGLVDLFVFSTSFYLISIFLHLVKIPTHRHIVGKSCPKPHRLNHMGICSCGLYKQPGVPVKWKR

B1: shark VNAR C3 (VNAR)
VNAR: ARVDQTPQTITAETGESLTINCVLRNSDCGLSDTYWFRMSPGSGSEERISIGGRYLETVNSVSKSFSLRINDLTVEDSGRYRCKTDVYRYVSGSGCLYSYFASGAGTVVTVN
B2: bivalent single domain antibody D5 in IgG2a format (Fc fusion)
chain 1: AWQLVESGGGSVQPGGSLTLTCQASKSTFSTSGMRWERQAQGKGVEFVADISSDSTRKWYSDSVKGRFTISRSNWWRTVTLQMNDLKPEDTARYYCKDLESHHLRGQGTQVTVSSAAAEPKIPQPQPKPQPQPQPQPKPQPKPEPECTCPKCP
chain 2: AWQLVESGGGSVQPGGSLTLTCQASKSTFSTSGMRWERQAQGKGVEFVADISSDSTRKWYSDSVKGRFTISRSNWWRTVTLQMNDLKPEDTARYYCKDLESHHLRGQGTQVTVSSAAAEPKIPQPQPKPQPQPQPQPKPQPKPEPECTCPKCP
B3: camel VHH D5 (VHH)
VHH: AWQLVESGGGSVQPGGSLTLTCQASKSTFSTSGMRWERQAQGKGVEFVADISSDSTRKWYSDSVKGRFTISRSNWWRTVTLQMNDLKPEDTARYYCKDLESHHLRGQGTQVTVSS
B4: shark VNAR A1 (VNAR)
VNAR: ARVDQTPQTITKETGESLTINCVPPDSNCALADTYWYRKKSGSTNEESISKGGRYVPTVNSGSKSFILRINDLRVADSGTYRCKVSCYAAAYYGQQLERLYDVYGGGTAVTVN
B5: shark VNAR A10 (VNAR)
chain: ARVDQTPQTITKETGESLTITCILRDSQCALSPTYWYHKKSGSTKPERIYKGGRYVETVNSGSKSFSLRINDLTVEDSGTFFCKVSGWYAYSCRLEPDGYYDVYGGGTVVTVN
B6: shark VNAR B8 (VNAR)
VNAR: ARVDQTPQTVTKETGESLTINCVLRDSNCALPSTYWYRKKSGSTNEENISKGGRYVETVNSGSKSFSLRINDLRPEDSGTYRCKVHGLPLDCIPARGLELNWREDVNGGGTAVTVN
B7: shark VNAR B10 (VNAR)
VNAR: ARVDQTPQTITKETGESLTINCVLRDSNCPLSSTFWYRADAGSLNEENISKGGRYVETVNSGSKSFSLRINDLTTEDSGTYRCKVAGLPLDCIPARGLELNWREDVYGGGTAVTVN

Legend:
LASV GP1 subunit protein [1] = biological target: T1, LASV GP1 subunit protein; assay: BLI
[2] = biological target: LASV GP2 subunit protein (Lassa virus); assay: BLI
bovine serum albumin = bovine serum albumin (bovine, UniProt P02769 25-607); assay: ELISA, plate coated with BSA
[3] = biological target: T2, LASV Josiah GPC on pseudotyped rVSV; assay: cell-based or functional assay
LASV GP1 subunit protein [4] = biological target: T1, LASV GP1 subunit protein; assay: BLI; remark: listed apart in the source

Chain of bovine serum albumin (P02769 25-607 limits assumed): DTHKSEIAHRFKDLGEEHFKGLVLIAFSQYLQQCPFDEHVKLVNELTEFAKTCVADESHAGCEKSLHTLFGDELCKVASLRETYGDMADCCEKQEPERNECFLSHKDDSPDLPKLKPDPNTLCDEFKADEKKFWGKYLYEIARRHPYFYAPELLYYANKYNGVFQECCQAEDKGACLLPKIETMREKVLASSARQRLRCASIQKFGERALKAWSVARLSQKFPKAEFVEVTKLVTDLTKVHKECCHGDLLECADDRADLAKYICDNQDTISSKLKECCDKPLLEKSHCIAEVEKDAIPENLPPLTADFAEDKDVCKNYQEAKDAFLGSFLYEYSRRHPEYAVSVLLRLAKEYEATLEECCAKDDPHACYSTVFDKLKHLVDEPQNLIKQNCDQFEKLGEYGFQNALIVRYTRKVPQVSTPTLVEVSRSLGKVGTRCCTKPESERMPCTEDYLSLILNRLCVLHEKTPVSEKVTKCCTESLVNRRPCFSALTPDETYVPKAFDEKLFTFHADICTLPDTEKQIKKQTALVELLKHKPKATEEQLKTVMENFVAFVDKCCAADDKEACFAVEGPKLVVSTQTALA

Binder	binding result (LASV GP1 subunit protein [1])	Kd [2]	koff [2]	kon [2]	binding result (bovine serum albumin)	neutralization of LASV pseudotyped Josiah virus [3]	IC50, neutralization of Josiah pseudovirus [3]	Kd (LASV GP1 subunit protein [1])	Kd (LASV GP1 subunit protein [4])	kon (LASV GP1 subunit protein [4])	koff (LASV GP1 subunit protein [4])
B1	no binding	10.6 nM	0.000265 s⁻¹	25100 M⁻¹ s⁻¹	no binding (tested: 1 ug/ml (single concentration))	< 50%	–	–	–	–	–
B2	–	–	–	–	–	–	12 µg/mL	–	–	–	–
B3	–	–	–	–	–	< 50%	–	20.8 nM	20.8 nM	23400 M⁻¹ s⁻¹	–
B4	–	–	–	–	no binding (tested: 1 ug/ml (single concentration))	< 50%	–	18.6 nM	–	–	–
B5	–	–	–	–	no binding (tested: 1 ug/ml (single concentration))	< 50%	–	22.7 nM	–	–	–
B6	–	–	–	–	no binding (tested: 1 ug/ml (single concentration))	< 50%	–	15.9 nM	–	149000 M⁻¹ s⁻¹	0.00236 s⁻¹
B7	–	–	–	–	no binding (tested: 1 ug/ml (single concentration))	< 50%	–	78.6 nM	–	52700 M⁻¹ s⁻¹	0.00414 s⁻¹
